Reference: article PMC7939455
Where two headings read alike, the source gives them in different places. Each block holds one molecule with its values, some of them ahead of it.

Columns and labels:
[1] = target: mOrange-tagged WT human RetGC1 (human) (UniProt Q02846); experiment: co-localisation of fluorescent fusions in living cells (confocal microscopy, PCC); mOrange-RetGC1 co-expressed with GCAP1-GFP or RD3-GFP in HEK293 cells (GFP plasmid to RetGC1 plasmid ~1/100 molar ratio); confocal images 24-30 h after transfection; PCC of whole-cell images; the GFP proteins are diffuse without RetGC1 and go to the membrane cyclase when they bind; PCC < 0.6 indicates lack of co-localization
[2] = target: R838S mOrange-RetGC1 (human) (UniProt Q02846); experiment: as above
[3] = target: mOrange-tagged R666W RetGC1 (human) (UniProt Q02846); experiment: as above
[4] = target: Ser838(g- r+):Ser838(g+ r-) RetGC1 dimer (human) (UniProt Q02846)
[5] = target: Arg838(g- r+):Arg838(g+ r-) RetGC1 dimer (human) (UniProt Q02846)
[6] = target: Ser838(g- r+):Arg838(g+ r-) RetGC1 heterodimer (human) (UniProt Q02846)
WT human RetGC1 (human) [7] = target: WT human RetGC1 (human) (UniProt Q02846)
R666W RetGC1 (human) = R666W RetGC1 (human) (UniProt Q02846)
WT human RetGC1 (human) [8] = target: WT human RetGC1 (human) (UniProt Q02846); remark: listed apart in the source
[9] = target: mOrange-tagged R761W RetGC1 (human) (UniProt Q02846); experiment: co-localisation of fluorescent fusions in living cells (confocal microscopy, PCC); mOrange-RetGC1 co-expressed with GCAP1-GFP or RD3-GFP in HEK293 cells (GFP plasmid to RetGC1 plasmid ~1/100 molar ratio); confocal images 24-30 h after transfection; PCC of whole-cell images; the GFP proteins are diffuse without RetGC1 and go to the membrane cyclase when they bind; PCC < 0.6 indicates lack of co-localization
[10] = target: mOrange-tagged G982VfsX39 RetGC1 (human) (UniProt Q02846); experiment: as above
[11] = target: mOrange-tagged WT human RetGC1 (human) (UniProt Q02846); experiment: as above; remark: listed apart in the source
[12] = target: R838S mOrange-RetGC1 (human) (UniProt Q02846); experiment: as above; remark: listed apart in the source
[13] = target: mOrange-tagged R666W RetGC1 (human) (UniProt Q02846); experiment: as above; remark: listed apart in the source
[14] = target: mOrange-tagged L911F RetGC1 (human) (UniProt Q02846); experiment: as above

B1: Human GCAP1 (E6S), N-myristoylated (natural protein)
chain: MGNVMSGKSVEELSSTECHQWYKKFMTECPSGQLTLYEFRQFFGLKNLSPSASQYVEQMFETFDFNKDGYIDFMEYVAALSLVLKGKVEQKLRWYFKLYDVDGNGCIDRDELLTIIQAIRAINPCSDTTMTAEEFTDTVFSKIDVNGDGELSLEEFIEGVQKDQMLLDTLTRSLDLTRIVRRLQNGEQDEEGADEAAEAAG
modifications: N-myristoylated
[GCAP]1/2: half-saturating concentration of GCAP1 for RetGC1 activation in 10 mM Mg2+ and 2 mM EGTA (Fig. 10C) [4]: 0.4 µM
[GCAP]1/2: half-saturating concentration of GCAP1 for RetGC1 activation in 10 mM Mg2+ and 2 mM EGTA (Fig. 10C) (WT human RetGC1 (human) [7]): 1.1 µM
[GCAP]1/2: half-saturating concentration of GCAP1 for RetGC1 activation in 10 mM Mg2+ and 2 mM EGTA (Fig. 10C) [5]: 1.65 µM
[GCAP]1/2: half-saturating concentration of GCAP1 for RetGC1 activation in 10 mM Mg2+ and 2 mM EGTA (Fig. 10C) [6]: 0.22 µM
[GCAP1]1/2: half-saturating concentration of Mg2+ GCAP1 for activation of guanylyl cyclase activity in HEK293 membranes (10 mM Mg2+, 2 mM EGTA) (R666W RetGC1 (human)): 7.25 µM
[GCAP]1/2: half-saturating concentration of Mg2+ GCAP1 for activation of guanylyl cyclase activity in HEK293 membranes (10 mM Mg2+, 2 mM EGTA) (WT human RetGC1 (human) [8]): 1.13 µM

B3: GCAP1-GFP (natural protein)
chain: MGNIMDGKSVEELSSTECHQWYKKFMTECPSGQLTLYEFRQFFGLKNLSPWASQYVEQMFETFDFNKDGYIDFMEYVAALSLVLKGKVEQKLRWYFKLYDVDGNGCIDRDELLTIIRAIRAINPCSDSTMTAEEFTDTVFSKIDVNGDGELSLEEFMEGVQKDQMLLDTLTRSLDLTRIVRRLQNGEQDEEGASGRETEAAEADG
PCC (Pearson's correlation coefficient of co-localization) [9]: 0.64
PCC (Pearson's correlation coefficient of co-localization) [10]: 0.87
PCC (Pearson's correlation coefficient of co-localization) [11]: 0.9
PCC (Pearson's correlation coefficient of co-localization) [12]: 0.89
PCC (Pearson's correlation coefficient of co-localization) [13]: 0.64
PCC (Pearson's correlation coefficient of co-localization) [14]: 0.89

B4: Human GCAP2, N-myristoylated (natural protein)
chain: MGQEFSWEEAEAAGEIDVAELQEWYKKFVMECPSGTLFMHEFKRFFKVTDDEEASQYVEGMFRAFDKNGDNTIDFLEYVAALNLVLRGTLEHKLKWTFKIYDKDGNGCIDRLELLNIVEGIYQLKKACRRELQTEQGQLLTPEEVVDRIFLLVDENGDGQLSLNEFVEGARRDKWVMKMLQMDMNPSSWLAQQRRKSAMF
modifications: N-myristoylated
[GCAP]1/2: half-saturating concentration of Mg2+ GCAP2 for activation of guanylyl cyclase activity in HEK293 membranes (10 mM Mg2+, 2 mM EGTA) (WT human RetGC1 (human) [8]): 19 µM

Further lines, results first:

PCC (Pearson's correlation coefficient of co-localization) [1]: 0.91
PCC (Pearson's correlation coefficient of co-localization) [2]: 0.91
PCC (Pearson's correlation coefficient of co-localization) [3]: 0.9
Molecule: RD3-GFP (from UniProt Q7Z3Z2 1-195) (natural protein)

[RD3]1/2: RD3 concentration causing 50% inhibition of RetGC1 activity preactivated by 1.5 μM GCAP1 in 10 mM Mg2+ and 2 mM EGTA; pair acted on: GCAP1 with the cyclase dimer [4]: 23 nM
[RD3]1/2: RD3 concentration causing 50% inhibition of RetGC1 activity preactivated by 1.5 μM GCAP1 in 10 mM Mg2+ and 2 mM EGTA; pair acted on: GCAP1 with the cyclase dimer [5]: 2.3 nM
[RD3]1/2: RD3 concentration causing 50% inhibition of RetGC1 activity preactivated by 1.5 μM GCAP1 in 10 mM Mg2+ and 2 mM EGTA; pair acted on: GCAP1 with the cyclase dimer [6]: 42 nM
Molecule: Recombinant human RD3 (from UniProt Q7Z3Z2 1-195) (natural protein)

[GCAP]1/2: half-saturating concentration of Mg2+ GCAP3 for activation of guanylyl cyclase activity in HEK293 membranes (10 mM Mg2+, 2 mM EGTA) (WT human RetGC1 (human) [8]): 5.3 µM
B2: Human GCAP3, N-myristoylated (natural protein)
chain: MGNGKSIAGDQKAVPTQETHVWYRTFMMEYPSGLQTLHEFKTLLGLQGLNQKANKHIDQVYNTFDTNKDGFVDFLEFIAAVNLIMQEKMEQKLKWYFKLYDADGNGSIDKNELLDMFMAVQALNGQQTLSPEEFINLVFHKIDINNDGELTLEEFINGMAKDQDLLEIVYKSFDFSNVLRVICNGKQPDMETDSSKSPDKAGLGKVKMK
modifications: N-myristoylated
